Assays:
[1] = target: T1, MICA胞外区α3结构域Fc融合蛋白(MICAα3-Fc); test: ELISA (legend of Fig. 2)
T1 construct: also called MICAα3-Fc融合蛋白; MICA α3结构域

[2] = target: T2, MICA (CHO-K1-MICA细胞表达) (Homo sapiens (Human), UniProt Q29983 24-383); test: flow cytometry (legend of Fig. 3)
T2 construct: also called MICA蛋白
T2 sequence: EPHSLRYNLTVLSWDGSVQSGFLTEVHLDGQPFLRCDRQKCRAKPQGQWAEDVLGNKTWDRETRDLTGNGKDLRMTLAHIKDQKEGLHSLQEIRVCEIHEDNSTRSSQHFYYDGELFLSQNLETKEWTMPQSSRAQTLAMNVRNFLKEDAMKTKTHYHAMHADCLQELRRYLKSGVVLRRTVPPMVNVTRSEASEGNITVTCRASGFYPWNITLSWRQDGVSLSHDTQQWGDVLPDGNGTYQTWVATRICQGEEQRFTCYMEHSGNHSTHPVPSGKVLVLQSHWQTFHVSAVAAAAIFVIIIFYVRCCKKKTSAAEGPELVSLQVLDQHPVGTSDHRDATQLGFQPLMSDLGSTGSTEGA

[3] = target: T3, MICB (CHO-K1-MICB细胞表达) (Homo sapiens (Human), UniProt Q29980 23-382); test: flow cytometry (legend of Fig. 4)
T3 chain: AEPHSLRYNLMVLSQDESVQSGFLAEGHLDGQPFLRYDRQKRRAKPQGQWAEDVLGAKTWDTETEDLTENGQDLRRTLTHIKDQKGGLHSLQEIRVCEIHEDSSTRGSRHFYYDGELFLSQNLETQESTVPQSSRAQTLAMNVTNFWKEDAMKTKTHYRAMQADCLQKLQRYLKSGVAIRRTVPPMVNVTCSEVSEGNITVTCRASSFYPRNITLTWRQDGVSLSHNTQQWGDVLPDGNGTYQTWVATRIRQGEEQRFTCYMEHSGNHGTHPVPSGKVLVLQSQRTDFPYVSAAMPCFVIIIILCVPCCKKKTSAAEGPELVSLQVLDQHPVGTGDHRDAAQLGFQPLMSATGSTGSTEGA

[4] = target: T4, 重组MICA胞外区Fc融合蛋白(MICA-Fc) (human); test: ELISA, MICA-Fc coated at 1 μg/mL, HRP anti-mouse secondary
T4 construct: also called MICA-Fc融合蛋白; 人MICA

Measured: binding result

T1 sequence (chain, as listed by the source limits assumed): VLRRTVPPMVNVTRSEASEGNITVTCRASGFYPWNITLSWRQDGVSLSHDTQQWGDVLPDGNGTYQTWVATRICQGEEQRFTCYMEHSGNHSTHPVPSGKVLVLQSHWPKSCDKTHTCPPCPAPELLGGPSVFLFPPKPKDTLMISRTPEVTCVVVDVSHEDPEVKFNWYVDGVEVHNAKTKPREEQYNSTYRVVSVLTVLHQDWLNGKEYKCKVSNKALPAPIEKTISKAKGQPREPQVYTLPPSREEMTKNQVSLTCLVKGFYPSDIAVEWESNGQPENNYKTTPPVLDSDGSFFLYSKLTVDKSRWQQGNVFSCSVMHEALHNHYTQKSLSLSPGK

B1: MICA抗体(编号为11G3) (antibody, V domains shown)
VH: QIQLVQSGPELKKPGESVKISCKASGYTFTDYGINWVKQAPGKGLKWVGWINTYTGEPINADDFKGRFALSLETSANTAYLQINNLKNEDMATYFCTRLSTVAVGAWFEYWGQGTLVTVSA
VL: DVLMTQTPLSLPVSLGDQASISCRSSQNIVHSNGNTYLEWYLQKPGQSPKLLIYKVSNRFSGVPDRFSGSGSGTDFTLKISRVEAEDLGVYYCFQGSHVPTFGGGTKLEIK
notes: also called 鼠单抗; 本发明的抗体
binds: all assays above

Reference: patent CN114369161A (HEFEN TIANKPORT IMMUNOLOGICAL DRUG CO LTD, dated 2022)
